In patent US20050266242A1 one finds fraction of seed-bound NM soluble in SDS data, which are given here for one substance.

The experiment deals with biotinylated NM^K184C seed (Saccharomyces cerevisiae) (UniProt P05453). The experiment is described as follows: capture of biotinylated seed (50% w/w) on Streptavidin-coated Dynabeads, SDS wash, scintillation counting.
Sequence of biotinylated NM^K184C seed (Saccharomyces cerevisiae) (P05453 1-253 K184C): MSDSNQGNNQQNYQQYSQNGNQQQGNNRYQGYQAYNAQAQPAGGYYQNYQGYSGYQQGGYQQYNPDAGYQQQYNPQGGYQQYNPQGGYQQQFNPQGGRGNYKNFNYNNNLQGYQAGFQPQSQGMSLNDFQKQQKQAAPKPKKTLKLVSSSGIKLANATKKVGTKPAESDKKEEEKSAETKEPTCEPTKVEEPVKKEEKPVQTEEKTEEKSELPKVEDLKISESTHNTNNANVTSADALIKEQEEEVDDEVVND

Substance “NM^T158C-iodo[1-14C]acetamide (from UniProt P05453 1-253)” yielded a fraction of seed-bound NM soluble in SDS at early time points of 50%.
